Starred links: 1 amine or outer side, 2 acyl side, 3 side chain; linkers in the order of their positions; H or OH if unused. Non-standard residues stand in square brackets, D forms with d. Groups on a side chain read outwards from the residue. No end group written: not given here. *: point of attachment. C20 diacid = O=C(O)CCCCCCCCCCCCCCCCCCC(=O)*; C18 diacid = O=C(O)CCCCCCCCCCCCCCCCC(=O)*; γGlu = O=C(O)[C@H](CCC(=O)[*:2])N[*:1]; αMeF = C[C@](N)(Cc1ccccc1)C(=O)O; AEEA = NCCOCCOCC(=O)O; Aib = CC(C)(N)C(=O)O
What was measured:
Assay in all cases: cell-based or functional assay
[1] = target: human GLP-1 receptor (human, UniProt P43220 24-463)
[2] = target: human glucagon receptor (human, UniProt P47871 26-477)
Chain of human glucagon receptor (P47871 26-477): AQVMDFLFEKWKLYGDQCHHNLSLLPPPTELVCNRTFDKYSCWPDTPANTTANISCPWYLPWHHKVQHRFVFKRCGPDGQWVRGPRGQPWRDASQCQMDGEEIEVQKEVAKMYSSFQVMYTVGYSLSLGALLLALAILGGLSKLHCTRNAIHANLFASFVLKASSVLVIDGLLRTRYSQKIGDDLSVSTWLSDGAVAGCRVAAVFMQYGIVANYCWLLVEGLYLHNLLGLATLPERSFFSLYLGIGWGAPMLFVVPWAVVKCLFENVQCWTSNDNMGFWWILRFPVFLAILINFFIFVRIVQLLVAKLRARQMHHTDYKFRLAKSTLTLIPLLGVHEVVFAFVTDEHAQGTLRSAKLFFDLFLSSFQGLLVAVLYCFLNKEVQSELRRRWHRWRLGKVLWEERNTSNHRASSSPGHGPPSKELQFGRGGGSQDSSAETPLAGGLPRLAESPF

[3] = target: human GLP-1 receptor (hGLP-1R) (human, UniProt P43220 24-463)
[4] = target: human glucagon receptor (hGCGR) (human, UniProt P47871 26-477)
Chain of human glucagon receptor (hGCGR) (P47871 26-477): as above

| Binder | hGLP-1R EC50 (pM), cAMP [1] [pM] | hGluc-R EC50 (pM), cAMP [2] [pM] | hGLP-1R EC50 (pM) [3] [pM] | hGluc-R EC50 (pM) [4] [pM] |
| --- | --- | --- | --- | --- |
| H[Aib]HGS[αMeF]TSDVSK[αMeF]LDSQAAK([AEEA-AEEA-γGlu-γGlu-C18 diacid])DFVEWIANT-NH2 (N-terminus assumed; SMILES CC[C@H](C)[C@H](NC(=O)[C@H](Cc1c[nH]c2ccccc12)NC(=O)[C@H](CCC(=O)O)NC(=O)[C@@H](NC(=O)[C@H](Cc1ccccc1)NC(=O)[C@H](CC(=O)O)NC(=O)[C@H](CCCCNC(=O)COCCOCCNC(=O)COCCOCCNC(=O)CC[C@H](NC(=O)CC[C@H](NC(=O)CCCCCCCCCCCCCCCCC(=O)O)C(=O)O)C(=O)O)NC(=O)[C@H](C)NC(=O)[C@H](C)NC(=O)[C@H](CCC(N)=O)NC(=O)[C@H](CO)NC(=O)[C@H](CC(=O)O)NC(=O)[C@H](CC(C)C)NC(=O)[C@](C)(Cc1ccccc1)NC(=O)[C@H](CCCCN)NC(=O)[C@H](CO)NC(=O)[C@@H](NC(=O)[C@H](CC(=O)O)NC(=O)[C@H](CO)NC(=O)[C@@H](NC(=O)[C@](C)(Cc1ccccc1)NC(=O)[C@H](CO)NC(=O)CNC(=O)[C@H](Cc1c[nH]cn1)NC(=O)C(C)(C)NC(=O)[C@@H](N)Cc1c[nH]cn1)[C@@H](C)O)C(C)C)C(C)C)C(=O)N[C@@H](C)C(=O)N[C@@H](CC(N)=O)C(=O)N[C@H](C(N)=O)[C@@H](C)O) [Peptide 210] | 156 | 93.7 |  |  |
| H[Aib]HGS[αMeF]TSDVSK[αMeF]LDSRAAK([AEEA-AEEA-γGlu-γGlu-C20 diacid])DFVEWIANT-NH2 (N-terminus assumed; SMILES CC[C@H](C)[C@H](NC(=O)[C@H](Cc1c[nH]c2ccccc12)NC(=O)[C@H](CCC(=O)O)NC(=O)[C@@H](NC(=O)[C@H](Cc1ccccc1)NC(=O)[C@H](CC(=O)O)NC(=O)[C@H](CCCCNC(=O)COCCOCCNC(=O)COCCOCCNC(=O)CC[C@H](NC(=O)CC[C@H](NC(=O)CCCCCCCCCCCCCCCCCCC(=O)O)C(=O)O)C(=O)O)NC(=O)[C@H](C)NC(=O)[C@H](C)NC(=O)[C@H](CCCNC(=N)N)NC(=O)[C@H](CO)NC(=O)[C@H](CC(=O)O)NC(=O)[C@H](CC(C)C)NC(=O)[C@](C)(Cc1ccccc1)NC(=O)[C@H](CCCCN)NC(=O)[C@H](CO)NC(=O)[C@@H](NC(=O)[C@H](CC(=O)O)NC(=O)[C@H](CO)NC(=O)[C@@H](NC(=O)[C@](C)(Cc1ccccc1)NC(=O)[C@H](CO)NC(=O)CNC(=O)[C@H](Cc1c[nH]cn1)NC(=O)C(C)(C)NC(=O)[C@@H](N)Cc1c[nH]cn1)[C@@H](C)O)C(C)C)C(C)C)C(=O)N[C@@H](C)C(=O)N[C@@H](CC(N)=O)C(=O)N[C@H](C(N)=O)[C@@H](C)O) [Peptide 213] | 534 | 141 |  |  |
| H[Aib]HGS[αMeF]TSDVSK[αMeF]LDSRAAK([AEEA-AEEA-γGlu-C20 diacid])D[αMeF]VQWIANT-NH2 (N-terminus assumed; SMILES CC[C@H](C)[C@H](NC(=O)[C@H](Cc1c[nH]c2ccccc12)NC(=O)[C@H](CCC(N)=O)NC(=O)[C@@H](NC(=O)[C@](C)(Cc1ccccc1)NC(=O)[C@H](CC(=O)O)NC(=O)[C@H](CCCCNC(=O)COCCOCCNC(=O)COCCOCCNC(=O)CC[C@H](NC(=O)CCCCCCCCCCCCCCCCCCC(=O)O)C(=O)O)NC(=O)[C@H](C)NC(=O)[C@H](C)NC(=O)[C@H](CCCNC(=N)N)NC(=O)[C@H](CO)NC(=O)[C@H](CC(=O)O)NC(=O)[C@H](CC(C)C)NC(=O)[C@](C)(Cc1ccccc1)NC(=O)[C@H](CCCCN)NC(=O)[C@H](CO)NC(=O)[C@@H](NC(=O)[C@H](CC(=O)O)NC(=O)[C@H](CO)NC(=O)[C@@H](NC(=O)[C@](C)(Cc1ccccc1)NC(=O)[C@H](CO)NC(=O)CNC(=O)[C@H](Cc1c[nH]cn1)NC(=O)C(C)(C)NC(=O)[C@@H](N)Cc1c[nH]cn1)[C@@H](C)O)C(C)C)C(C)C)C(=O)N[C@@H](C)C(=O)N[C@@H](CC(N)=O)C(=O)N[C@H](C(N)=O)[C@@H](C)O) [Peptide 215] | 7620 | 2610 |  |  |
| H[Aib]HGS[αMeF]TSDVSK[αMeF]LDSR[Aib]AK([AEEA-AEEA-γGlu-γGlu-C20 diacid])DFVQ[Aib]IANT-NH2 (not fully specified) [Peptide 221] | 122 | 123 |  |  |
| H[Aib]HGS[αMeF]TSDVSK[αMeF]LDSRAAK([AEEA-AEEA-γGlu-C18 diacid])D[αMeF]VQ[Aib]IANT-NH2 (N-terminus assumed; SMILES CC[C@H](C)[C@H](NC(=O)C(C)(C)NC(=O)[C@H](CCC(N)=O)NC(=O)[C@@H](NC(=O)[C@](C)(Cc1ccccc1)NC(=O)[C@H](CC(=O)O)NC(=O)[C@H](CCCCNC(=O)COCCOCCNC(=O)COCCOCCNC(=O)CC[C@H](NC(=O)CCCCCCCCCCCCCCCCC(=O)O)C(=O)O)NC(=O)[C@H](C)NC(=O)[C@H](C)NC(=O)[C@H](CCCNC(=N)N)NC(=O)[C@H](CO)NC(=O)[C@H](CC(=O)O)NC(=O)[C@H](CC(C)C)NC(=O)[C@](C)(Cc1ccccc1)NC(=O)[C@H](CCCCN)NC(=O)[C@H](CO)NC(=O)[C@@H](NC(=O)[C@H](CC(=O)O)NC(=O)[C@H](CO)NC(=O)[C@@H](NC(=O)[C@](C)(Cc1ccccc1)NC(=O)[C@H](CO)NC(=O)CNC(=O)[C@H](Cc1c[nH]cn1)NC(=O)C(C)(C)NC(=O)[C@@H](N)Cc1c[nH]cn1)[C@@H](C)O)C(C)C)C(C)C)C(=O)N[C@@H](C)C(=O)N[C@@H](CC(N)=O)C(=O)N[C@H](C(N)=O)[C@@H](C)O) [Peptide 225] | 34.9 | 145 |  |  |
| H[Aib]HGS[αMeF]TSDVSK[αMeF]LDSRAAK([AEEA-AEEA-γGlu-C18 diacid])D[αMeF]VE[Aib]IANT-NH2 [Peptide 227] | 70.5 | 27.2 |  |  |
| H[Aib]HGS[αMeF]TSDVSK[αMeF]LDSRAAK([AEEA-AEEA-γGlu-γGlu-C20 diacid])D[αMeF]VQ[Aib]IANTGG-NH2 (N-terminus assumed; SMILES CC[C@H](C)[C@H](NC(=O)C(C)(C)NC(=O)[C@H](CCC(N)=O)NC(=O)[C@@H](NC(=O)[C@](C)(Cc1ccccc1)NC(=O)[C@H](CC(=O)O)NC(=O)[C@H](CCCCNC(=O)COCCOCCNC(=O)COCCOCCNC(=O)CC[C@H](NC(=O)CC[C@H](NC(=O)CCCCCCCCCCCCCCCCCCC(=O)O)C(=O)O)C(=O)O)NC(=O)[C@H](C)NC(=O)[C@H](C)NC(=O)[C@H](CCCNC(=N)N)NC(=O)[C@H](CO)NC(=O)[C@H](CC(=O)O)NC(=O)[C@H](CC(C)C)NC(=O)[C@](C)(Cc1ccccc1)NC(=O)[C@H](CCCCN)NC(=O)[C@H](CO)NC(=O)[C@@H](NC(=O)[C@H](CC(=O)O)NC(=O)[C@H](CO)NC(=O)[C@@H](NC(=O)[C@](C)(Cc1ccccc1)NC(=O)[C@H](CO)NC(=O)CNC(=O)[C@H](Cc1c[nH]cn1)NC(=O)C(C)(C)NC(=O)[C@@H](N)Cc1c[nH]cn1)[C@@H](C)O)C(C)C)C(C)C)C(=O)N[C@@H](C)C(=O)N[C@@H](CC(N)=O)C(=O)N[C@H](C(=O)NCC(=O)NCC(N)=O)[C@@H](C)O) [Peptide 233] |  | 407 |  |  |
| H[Aib]HGS[αMeF]TSDVSK[αMeF]LDSRAAK([AEEA-AEEA-γGlu-γGlu-C20 diacid])D[αMeF]VQSIANT-NH2 (not fully specified) [Peptide 244] | 143 | 420 |  |  |
| H[Aib]HGS[αMeF]TSDVSK[αMeF]LDSRAAK([AEEA-AEEA-γGlu-γGlu-C20 diacid])D[αMeF]VESIANT-NH2 (N-terminus assumed; SMILES CC[C@H](C)[C@H](NC(=O)[C@H](CO)NC(=O)[C@H](CCC(=O)O)NC(=O)[C@@H](NC(=O)[C@](C)(Cc1ccccc1)NC(=O)[C@H](CC(=O)O)NC(=O)[C@H](CCCCNC(=O)COCCOCCNC(=O)COCCOCCNC(=O)CC[C@H](NC(=O)CC[C@H](NC(=O)CCCCCCCCCCCCCCCCCCC(=O)O)C(=O)O)C(=O)O)NC(=O)[C@H](C)NC(=O)[C@H](C)NC(=O)[C@H](CCCNC(=N)N)NC(=O)[C@H](CO)NC(=O)[C@H](CC(=O)O)NC(=O)[C@H](CC(C)C)NC(=O)[C@](C)(Cc1ccccc1)NC(=O)[C@H](CCCCN)NC(=O)[C@H](CO)NC(=O)[C@@H](NC(=O)[C@H](CC(=O)O)NC(=O)[C@H](CO)NC(=O)[C@@H](NC(=O)[C@](C)(Cc1ccccc1)NC(=O)[C@H](CO)NC(=O)CNC(=O)[C@H](Cc1c[nH]cn1)NC(=O)C(C)(C)NC(=O)[C@@H](N)Cc1c[nH]cn1)[C@@H](C)O)C(C)C)C(C)C)C(=O)N[C@@H](C)C(=O)N[C@@H](CC(N)=O)C(=O)N[C@H](C(N)=O)[C@@H](C)O) [Peptide 246] | 320 | 557 |  |  |
| H[Aib]QGTFTSDVSK[αMeF]LDSK([AEEA-AEEA-γGlu-C18 diacid])RAQDFVRWVVE[Aib]G-OH (N-terminus assumed; SMILES CC(C)C[C@H](NC(=O)[C@](C)(Cc1ccccc1)NC(=O)[C@H](CCCCN)NC(=O)[C@H](CO)NC(=O)[C@@H](NC(=O)[C@H](CC(=O)O)NC(=O)[C@H](CO)NC(=O)[C@@H](NC(=O)[C@H](Cc1ccccc1)NC(=O)[C@@H](NC(=O)CNC(=O)[C@H](CCC(N)=O)NC(=O)C(C)(C)NC(=O)[C@@H](N)Cc1c[nH]cn1)[C@@H](C)O)[C@@H](C)O)C(C)C)C(=O)N[C@@H](CC(=O)O)C(=O)N[C@@H](CO)C(=O)N[C@@H](CCCCNC(=O)COCCOCCNC(=O)COCCOCCNC(=O)CC[C@H](NC(=O)CCCCCCCCCCCCCCCCC(=O)O)C(=O)O)C(=O)N[C@@H](CCCNC(=N)N)C(=O)N[C@@H](C)C(=O)N[C@@H](CCC(N)=O)C(=O)N[C@@H](CC(=O)O)C(=O)N[C@@H](Cc1ccccc1)C(=O)N[C@H](C(=O)N[C@@H](CCCNC(=N)N)C(=O)N[C@@H](Cc1c[nH]c2ccccc12)C(=O)N[C@H](C(=O)N[C@H](C(=O)N[C@@H](CCC(=O)O)C(=O)NC(C)(C)C(=O)NCC(=O)O)C(C)C)C(C)C)C(C)C) [Peptide 149] |  |  | 8.71 | 2650 |

Source: patent US20230357348A1 (AstraZeneca / MedImmune, published 2023)
